Experimental data: patent US20240117018A1

Columns and labels:
Assay in all cases: cell-based or functional assay
[1] = biological target: HIV-1 Env of pseudovirus SC05_8C11_2344 (HIV-1)
[2] = biological target: HIV-1 Env of pseudovirus Ce1176_A3 (HIV-1)
[3] = biological target: HIV-1 Env of pseudovirus T251-18 (HIV-1)
[4] = biological target: HIV-1 Env of pseudovirus THRO4156.18 (HIV-1)
[5] = biological target: HIV-1 Env of pseudovirus Ce0682_E4 (HIV-1)
[6] = biological target: HIV-1 Env of pseudovirus Q769.d22 (HIV-1)
[7] = biological target: HIV-1 Env of pseudovirus CNE19 (HIV-1)
[8] = biological target: HIV-1 Env of pseudovirus PVO.4 (HIV-1)
[9] = biological target: HIV-1 Env of pseudovirus WITO4160.33 (HIV-1)
[10] = biological target: HIV-1 Env of pseudovirus Q23.17 (HIV-1)
[11] = biological target: HIV-1 Env of pseudovirus SC422661.8 (HIV-1)
[12] = biological target: HIV-1 Env of pseudovirus TRO.11 (HIV-1)
[13] = biological target: HIV-1 Env of pseudovirus 246F C1G (HIV-1)
[14] = biological target: HIV-1 Env of pseudovirus 191084 B7-19 (HIV-1)
[15] = biological target: HIV-1 Env of pseudovirus T250-4 (HIV-1)
[16] = biological target: HIV-1 Env of pseudovirus HIV-16055-2.3 (HIV-1)
[17] = biological target: HIV-1 Env of pseudovirus P1981_C5_3 (HIV-1)
[18] = biological target: HIV-1 Env of pseudovirus 1394C9G1(Rev-) (HIV-1)
[19] = biological target: HIV-1 Env of pseudovirus C4118.c09 (HIV-1)
[20] = biological target: HIV-1 Env of pseudovirus Ce1172_H1 (HIV-1)
[21] = biological target: HIV-1 Env of pseudovirus Ce703010054_2A2 (HIV-1)
[22] = biological target: HIV-1 Env of pseudovirus CAAN5342.A2 (HIV-1)
[23] = biological target: HIV-1 Env of pseudovirus ZM247v1(Rev-) (HIV-1)
[24] = biological target: HIV-1 Env of pseudovirus CAP210.2.00.E8 (HIV-1)
[25] = biological target: HIV-1 Env of pseudovirus 928-28 (HIV-1)
[26] = biological target: HIV-1 Env of pseudovirus 3301.v1.c24 (HIV-1)
[27] = biological target: HIV-1 Env of pseudovirus 6535.3 (HIV-1)
[28] = biological target: HIV-1 Env of pseudovirus 1054_07_TC4_1499 (HIV-1)
[29] = biological target: HIV-1 Env of pseudovirus CNE30 (HIV-1)
[30] = biological target: HIV-1 Env of pseudovirus CNE21 (HIV-1)
[31] = biological target: HIV-1 Env of pseudovirus 620345.c01 (HIV-1)
[32] = biological target: HIV-1 Env of pseudovirus 3103.v3.c10 (HIV-1)
[33] = biological target: HIV-1 Env of pseudovirus HIV-16845-2.22 (HIV-1)
[34] = biological target: HIV-1 Env of pseudovirus Du156.12 (HIV-1)

With PGT151 (antibody) the neutralization IC50 [1] was 0.06 µg/mL, the neutralization IC80 [1] was over 50 µg/mL and the neutralization IC50 [2] was 0.006 µg/mL. For the same substance, the neutralization IC80 [2] was 0.018 µg/mL, the IC50 (Titer in TZM.bl cells) [3] was 0.327 µg/mL and the IC80 (Titer in TZM.bl cells) [3] was over 50 µg/mL. For the same substance, the neutralization IC50 [4] was over 50 µg/mL, the neutralization IC80 [4] was over 50 µg/mL and the neutralization IC50 [5] was over 50 µg/mL. The neutralization IC80 [5] was over 50 µg/mL, the neutralization IC50 [6] was over 50 µg/mL and the neutralization IC80 [6] was over 50 µg/mL. It also gave a neutralization IC50 [7] of 0.014 µg/mL, a neutralization IC80 [7] of over 50 µg/mL and a neutralization IC50 [8] of 0.017 µg/mL. It also gave a neutralization IC80 [8] of over 50 µg/mL, a neutralization IC50 [9] of 0.002 µg/mL and a neutralization IC80 [9] of 0.021 µg/mL. For the same substance, the neutralization IC50 [10] was 0.007 µg/mL, the neutralization IC80 [10] was 0.045 µg/mL and the neutralization IC50 [11] was 0.005 µg/mL. It also gave a neutralization IC80 [11] of 0.028 µg/mL, a neutralization IC50 [12] of over 50 µg/mL and a neutralization IC80 [12] of over 50 µg/mL. The neutralization IC50 [13] was over 50 µg/mL, the neutralization IC80 [13] was over 50 µg/mL and the neutralization IC50 [14] was 0.004 µg/mL. The neutralization IC80 [14] was 0.016 µg/mL, the neutralization IC50 [15] was 0.005 µg/mL and the neutralization IC80 [15] was 0.014 µg/mL. It also gave a neutralization IC50 [16] of 0.143 µg/mL, a neutralization IC80 [16] of over 50 µg/mL and an IC50 (Titer in TZM.bl cells) [17] of 0.021 µg/mL. For the same substance, the IC80 (Titer in TZM.bl cells) [17] was over 50 µg/mL, the neutralization IC50 [18] was 0.022 µg/mL and the neutralization IC80 [18] was 0.733 µg/mL. For the same substance, the IC50 (Titer in TZM.bl cells) [19] was over 50 µg/mL, the IC80 (Titer in TZM.bl cells) [19] was over 50 µg/mL and the neutralization IC50 [20] was over 50 µg/mL. It also gave a neutralization IC80 [20] of over 50 µg/mL, a neutralization IC50 [21] of 0.013 µg/mL and a neutralization IC80 [21] of 0.075 µg/mL. It also gave a neutralization IC50 [22] of 0.005 µg/mL, a neutralization IC80 [22] of 0.038 µg/mL and a neutralization IC50 [23] of 0.009 µg/mL. It also gave a neutralization IC80 [23] of over 50 µg/mL, a neutralization IC50 [24] of 0.01 µg/mL and a neutralization IC80 [24] of 0.208 µg/mL. For the same substance, the neutralization IC50 [25] was over 50 µg/mL, the neutralization IC80 [25] was over 50 µg/mL and the IC50 (Titer in TZM.bl cells) [26] was 0.002 µg/mL. It also gave an IC80 (Titer in TZM.bl cells) [26] of 0.019 µg/mL, a neutralization IC50 [27] of under 0.001 µg/mL and a neutralization IC80 [27] of 0.012 µg/mL. The neutralization IC50 [28] was 0.008 µg/mL, the neutralization IC80 [28] was 0.032 µg/mL and the neutralization IC50 [29] was over 50 µg/mL. It also gave a neutralization IC80 [29] of over 50 µg/mL, a neutralization IC50 [30] of 0.004 µg/mL and a neutralization IC80 [30] of 0.012 µg/mL. It also gave an IC50 (Titer in TZM.bl cells) [31] of over 50 µg/mL, an IC80 (Titer in TZM.bl cells) [31] of over 50 µg/mL and an IC50 (Titer in TZM.bl cells) [32] of 0.014 µg/mL. For the same substance, the IC80 (Titer in TZM.bl cells) [32] was 0.202 µg/mL, the neutralization IC50 [33] was over 50 µg/mL and the neutralization IC80 [33] was over 50 µg/mL. For the same substance, the neutralization IC50 [34] was 0.005 µg/mL and the neutralization IC80 [34] was 0.023 µg/mL.
